Measurements: patent US7575910B2, “Method for producing L-fuculose and method for producing L-fucose” (priority 2004, dated 2009)

Key:
[1] = tested on: NADH oxidase activity in cell free extract of G. oxydans IFO 3255 sldA:Kmr mutant strain; assay: NADH oxidation activity in acetobacterium cell-free extract; type: biochemical, Gluconobacter oxydans IFO 3255 sldA:Kmr; details: pH 8.0, 0.03 mM FAD
Excerpt: The group without the extract was used as a control.

[2] = molecular target: NOX (NADH oxidase) (Gluconobacter thailandicus, UniProt A0ABQ0IUG6); assay: NOX activity: NADH/NADPH and flavin coenzyme specificity; type: biochemical, Gluconobacter oxydans IFO 3255; details: flavin 0 to 300 μM, FIG. 19
NOX (NADH oxidase), sequence (A0ABQ0IUG6 entry or part of it): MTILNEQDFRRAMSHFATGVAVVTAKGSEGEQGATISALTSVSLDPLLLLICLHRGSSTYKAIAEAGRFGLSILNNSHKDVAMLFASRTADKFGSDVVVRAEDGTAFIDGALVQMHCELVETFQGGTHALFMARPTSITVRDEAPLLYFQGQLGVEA
Experimental: The change in absorbance in the first minute was taken as an initial rate, and the activity was calculated therefrom. The experimental group without the enzyme source was used as a blank. […] The measurement was taken three consecutive times. Their mean value was taken and is shown in the figure with the standard deviation.
The concentration of flavin in the reaction solution was 0 to 300 μM, and the others were adjusted to standard conditions.
The Km value for the substrate was calculated by measuring the activity with a variety of substrate concentrations and drawing a Lineweaver-Burk plot of the results.

[3] = molecular target: FcDH (Gluconobacter thailandicus, UniProt A0ABQ0IZX0); assay: NAD and NADP specificity of FcDH; type: biochemical, Gluconobacter oxydans IFO 3255; details: data not shown
Experimental: The measurement was started when NAD was added. The change in absorbance in the first minute was taken as the initial rate, and the activity was calculated therefrom. […] The measurement was performed consecutively three times. Their mean value was taken and is shown in the figure with the standard deviation.
Since FcDH uses NAD as a coenzyme, the availability of NAD and NADP was measured. The activity was measured by adding NAD or NADP at various concentrations under standard conditions. The Km value for each coenzyme was calculated by drawing a Lineweaver-Burk plot of the results (FIG. 14 (B)).

[4] = substrate: OC[C@@H](O)[C@@H](O)[C@H](O)[C@H](O)CO; assay: Substrate specificity of purified FcDH (kcat, Km by Lineweaver-Burk plot); type: biochemical, Gluconobacter oxydans IFO 3255; details: other: purified FcDH, pH 9.5, 30.0 °C
Experimental: (§1) The measurement was started when NAD was added. […] The measurement was performed consecutively three times.
(§2) Values of kcat and Km for each substrate were obtained by measuring the initial rate of the reaction with various substrate concentrations and drawing a Lineweaver-Burk plot of the results.
(§3) Lineweaver-Burk plots of the results in (A) and (B) are shown in FIG. 12 (C) and (D), respectively. The Km and kcat values were calculated from the range in which substrate inhibition was not observed, i.e., from a straight line represented by a broken line in FIG. 12 (C) and (D).

[5] = substrate: OC[C@@H](O)[C@H](O)[C@H](O)[C@@H](O)CO; assay: as above; type: biochemical, Gluconobacter oxydans IFO 3255; details: other: purified FcDH, pH 9.5, 30.0 °C
Experimental: as §1, §2, §3

[6] = substrate: OC[C@@H](O)[C@@H](O)[C@H](O)[C@@H](O)CO; assay: as above; type: biochemical, Gluconobacter oxydans IFO 3255; details: other: purified FcDH, pH 9.5, 30.0 °C
Experimental: as §1, §2, §3

[7] = substrate: OC[C@@H](O)[C@@H](O)[C@@H](O)CO; assay: purified protein, by the assay type; details: other: purified FcDH, substrate; Lineweaver-Burk plot; pH 9.5; 30.0 °C
[8] = substrate: OC[C@@H](O)[C@H](O)[C@@H](O)CO; assay: purified protein, by the assay type; details: other: purified FcDH, substrate; Lineweaver-Burk plot; pH 9.5; 30.0 °C
[9] = substrate: OC[C@@H](O)C(O)[C@H](O)CO; assay: purified protein, by the assay type; details: other: purified FcDH, substrate; Lineweaver-Burk plot; pH 9.5; 30.0 °C
[10] = substrate: C[C@H](O)[C@@H](O)[C@@H](O)[C@H](O)CO; assay: purified protein, by the assay type; details: other: purified FcDH, substrate; Lineweaver-Burk plot; pH 9.5; 30.0 °C

**Q.** How did the “effect of FAD addition on NADH oxidation activity” value [1] turn out when `Cc1cc2nc3c(=O)[nH]c(=O)nc-3n(C[C@H](O)[C@H](O)[C@H](O)COP(=O)(O)OP(=O)(O)OC[C@H]3O[C@@H](n4cnc5c(N)ncnc54)[C@H](O)[C@@H]3O)c2cc1C` [FAD] was run?
**A.** The value was “facilitated this activity”.

**Q.** And the “NOX activation effect of flavin coenzyme” value [2]?
**A.** Its value is “NOX activation effect was observed”.

**Q.** For `NC(=O)c1ccc[n+]([C@H]2O[C@@H](COP(=O)([O-])OP(=O)(O)OC[C@H]3O[C@@H](n4cnc5c(N)ncnc54)[C@H](OP(=O)(O)O)[C@@H]3O)[C@H](O)[C@@H]2O)c1` [NADP], which “FcDH activity with NADP as the coenzyme” value [3] is on record?
**A.** The value was “no significant activity”.

B1: FcDH (L-fuculose-producing L-fucitol dehydrogenase) (Gluconobacter thailandicus NBRC 3257) (protein)
chain: MYMEKLRLDGRTAVVTGGAQNIGLACVTALAEAGARVVIADLDEAMAAQSAEELCAEGLDVRSIRMDVTSMENVQAAIKTLHEQEGHLDILVACAGICISEVKAEDMTEGQWLKQVDINLNGMFRCCQAVGRIMLEQKKGAIVAIGSMSGQIVNRPQQQAAYNASKAGVHQYIRSLAAEWAPYGIRANAVAPTYIETTLTRFGMEKPELYDAWIAGTPMGRVGQPDEVASVVHFLASDAASLMTGSIVNVDAGFTVW
**Q.** Which results are given for B1?
**A.** Km [4]: 30.2 mM; Km [5]: 30.5 mM; Km [6]: 22.4 mM; Km [7]: 20.4 mM; Km [8]: 31.9 mM; Km [9]: 1.3 mM; Km [10]: 31.9 mM
